Measured values from paper PMC2880790, “Solution Structure and Characterisation of the Human Pyruvate Dehydrogenase Complex Core Assembly” (Journal of Molecular Biology, 2010).
Each block holds one binder with its values, some of them ahead of it.

Tests used:
[1] = biological target: the molecule itself; assay: AUC; sedimentation velocity of the cores; 76-306 nM rE2/E3BP, 60-260 nM rE2, 116-730 nM tE2/E3BP; PEBS100 buffer (2 mM EDTA, 100 mM NaCl, 50 mM KH2PO4, pH 7.5); 20,000 rpm, 4 °C; interference optics
[2] = biological target: T1, bovine heart E2 of the native bovine PDC core (bE2/E3BP) (bovine, UniProt P11180 87-647); assay: SAXS; beamline X33 EMBL/DESY; PEBS100 buffer; 830.9 nM rE2/E3BP and 183.1 nM bE2/E3BP used for ab initio modelling (GASBOR, icosahedral symmetry); details: both partners purified
T1 construct: E2 (dihydrolipoamide acetyltransferase) of bovine heart pyruvate dehydrogenase complex, native; also called E2 of bE2/E3BP; source: purified from bovine heart PDC (sucrose gradients in 2 M NaCl), as bE2/E3BP core
T1 sequence (looked up): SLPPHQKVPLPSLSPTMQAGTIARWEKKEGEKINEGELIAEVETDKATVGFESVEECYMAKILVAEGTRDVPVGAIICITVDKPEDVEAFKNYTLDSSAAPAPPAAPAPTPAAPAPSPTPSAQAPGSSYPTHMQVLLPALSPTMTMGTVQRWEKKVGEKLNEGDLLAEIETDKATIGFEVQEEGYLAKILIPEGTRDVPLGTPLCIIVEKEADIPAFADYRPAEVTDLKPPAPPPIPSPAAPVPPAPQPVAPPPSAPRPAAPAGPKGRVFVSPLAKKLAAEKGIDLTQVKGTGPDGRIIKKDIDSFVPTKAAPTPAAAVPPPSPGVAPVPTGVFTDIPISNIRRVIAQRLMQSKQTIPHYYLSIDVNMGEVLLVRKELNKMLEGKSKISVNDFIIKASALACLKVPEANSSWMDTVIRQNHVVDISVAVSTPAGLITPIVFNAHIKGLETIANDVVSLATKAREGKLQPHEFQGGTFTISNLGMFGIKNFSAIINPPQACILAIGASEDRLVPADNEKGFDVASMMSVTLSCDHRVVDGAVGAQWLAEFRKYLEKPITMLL

B1: recombinant full-length E2-only PDC core (rE2); dihydrolipoamide acetyltransferase of human pyruvate dehydrogenase complex (enzyme, UniProt P10515 87-647, looked up)
chain: SLPPHQKVPLPSLSPTMQAGTIARWEKKEGDKINEGDLIAEVETDKATVGFESLEECYMAKILVAEGTRDVPIGAIICITVGKPEDIEAFKNYTLDSSAAPTPQAAPAPTPAATASPPTPSAQAPGSSYPPHMQVLLPALSPTMTMGTVQRWEKKVGEKLSEGDLLAEIETDKATIGFEVQEEGYLAKILVPEGTRDVPLGTPLCIIVEKEADISAFADYRPTEVTDLKPQVPPPTPPPVAAVPPTPQPLAPTPSAPCPATPAGPKGRVFVSPLAKKLAVEKGIDLTQVKGTGPDGRITKKDIDSFVPSKVAPAPAAVVPPTGPGMAPVPTGVFTDIPISNIRRVIAQRLMQSKQTIPHYYLSIDVNMGEVLLVRKELNKILEGRSKISVNDFIIKASALACLKVPEANSSWMDTVIRQNHVVDVSVAVSTPAGLITPIVFNAHIKGVETIANDVVSLATKAREGKLQPHEFQGGTFTISNLGMFGIKNFSAIINPPQACILAIGASEDKLVPADNEKGFDVASMMSVTLSCDHRVVDGAVGAQWLAEFRKYLEKPITMLL
notes: E2 (dihydrolipoamide acetyltransferase) of the human pyruvate dehydrogenase complex, full-length recombinant; monomer printed as 61 kDa; 60-mer mass from composition 3,741,780 Da; Cultures were supplemented with lipoic acid on induction; source: E. coli BL21 star (DE3), pET14b, purified (zinc chelate, anion exchange, gel filtration); not shown: His tag, N-terminal, kept; copies: 60
stoichiometry N [1]: 60

binding result [2]: binds
B2: bovine heart E3BP of the native bovine PDC core (bE2/E3BP) (natural protein, UniProt P22439 54-501, looked up)
chain: ADPIKILMPSLSPTMEEGNIVKWLKKEGEAVSAGDALCEIETDKAVVTLDASDDGILAKIVVAEGSKNIRLGSLIGLLVEEGEDWKHVEIPKDTGPPPPAAKPSVPPPSAEPQIATPVKKEHPPGKVQFRLSPAARNILEKHALDANQGTATGPRGIFTKEDALKLVQLKQTGKITEPRPTAALPTTPAAPLPPQAAATASYPRPMIPPVSTPGQPNVEGTFTEIPASNIRRVIAKRLTESKSTIPHAYATTDCDLGAVLTARQNLVRDDIKVSVNDFIIKAAAVTLKQMPNVNASWDGEGAKQLPSIDISVAVATDRGLITPVIKDAAAKGLQEIADSVKALSKKARDGKLLPEEYQGGSFSISNLGMFGIDEFTAVINPPQACILAVGRFRPVLKLTQDEEGNAQLQQRQLITVTMSSDSRVVDDELATRFLESFKANLENPLRLA
notes: also called E3BP of bE2/E3BP; source: purified from bovine heart PDC (sucrose gradients in 2 M NaCl), as bE2/E3BP core
